For one substance, stoichiometry N results are on record in publication PMC5882232.

This assay has as its target TRPA1b-FLAG (mouse TRPA1b, splice variant of TRPA1 lacking exon 20, tagged with FLAG) (mouse). The assay is described as follows: native gel or EMSA. On the technique in general: Mobility shift assays separate free from complexed probe on a gel.

Substance “TRPA1b-FLAG (mouse TRPA1b, splice variant of TRPA1 lacking exon 20, tagged with FLAG) (natural protein)” came in with a stoichiometry N of 4.

One may read the stoichiometry N as the number of molecules, sites or subunits per partner or assembly.
